The supplement of paper PMC10567573

B1: DLC1 (parent)
chain: AEVVKIRDSFSNQNTETKDTKSR
B2: ANKRD17 (parent)
chain: EMVRFLLEAGADQEHKTDEMHTAL

Variants of: B1
Assay: protein stability index of a GFP-peptide fusion (GPS, HEK-293T) (PSI 1-6); higher = more stable
Conditions: c terminus: native
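Also: lentivirally expressed fusions sorted by FACS into six bins by GFP to DsRed ratio, PSI derived from sequencing read proportions per bin multiplied by bin number.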

Variant	protein stability index
K18Q	1.84
K18E	1.7
K18G	2.13
K18F	2.59
K18T	2.2
K18W	2.05
K18L	3.07
K18P	2.15
K18V	2.32
K18I	2.26
K18N	1.98
K18Y	1.94
K18R	1.5
K18H	2.98
K18S	1.98
K18M	1.91
K18D	1.39
R23I	4.91
R23D	5.6
R23N	5.26
R23V	5.51
R23A	5.57

Variant	protein stability index
R23Q	5.65
R23P	5.32
R23F	4.83
R23E	5.85
R23C	4.75
R23Y	4.56
R23M	5.38
R23W	3.23
R23G	4.84
R23L	5.49
R23K	5.49
R23H	5.37
R23T	5.55
T20F	1.36
T20E	1.64
T20G	2.51
T20H	2.09
T20M	1.96
T20C	1.93
T20D	2.23
T20K	4.33
T20I	2.7

Variant	protein stability index
T20N	3.98
T20S	1.79
T20A	1.79
T20Q	2.42
T20L	2.71
T20Y	2.1
T20P	2.88
T20V	2.61
T20R	4.41
S22A	1.93
S22E	3.8
S22H	3.48
S22Q	3.03
S22N	2.88
S22K	2.92
S22L	3.48
S22P	4.53
S22D	3.23
S22W	3.96
S22G	1.89
S22Y	3.36
S22C	1.82

Variant	protein stability index
S22V	2.98
S22F	4.11
S22I	3.14
S22T	3.04
S22M	4.06
S22R	2.75
D19L	2.1
D19T	3.09
D19R	1.84
D19C	1.83
D19Y	2.69
D19G	2
D19Q	1.99
D19M	1.95
D19H	2.07
D19A	1.79
D19W	1.45
D19V	1.91
D19N	3.63
D19S	2.19
D19K	1.85
D19F	1.92

Variant	protein stability index
D19E	2.31
D19P	3.03
D19I	2.29
K21F	4.8
K21G	5.44
K21H	2.96
K21V	4.89
K21M	4.99
K21I	4.85
K21Y	3.57
K21D	5.42
K21W	3.92
K21L	4.19
K21S	5.01
K21Q	4.95
K21E	5.2
K21R	1.71
K21T	4.87
K21C	4.39
K21P	3.51
K21N	5.59
K21A	5.24

Variants of: B2
Assay: as above
Conditions: c terminus: a fixed tail appended

Variant	protein stability index
L7C	3.56
L7F	3.31
L7N	3.72
L7G	4.76
L7S	3.95
L7M	3.4
L7Q	4.04
L7I	3.31
L7R	4.13
L7A	4.08
L7T	3.99
L7K	3.7
L7E	4.79
L7H	4.27
L7P	4.99
L7W	3.26
L7D	5.07
L7V	3.64
L7Y	3.17
G10I	1.98
G10W	2.2
G10S	2.03
G10K	2.57
G10Y	1.72
G10N	2.82

Variant	protein stability index
G10M	2.05
G10Q	2.57
G10F	2.18
G10T	2.27
G10C	2.13
G10D	3.13
G10E	3.32
G10H	2.57
G10R	1.67
G10A	2.76
G10V	2.07
G10P	3.73
G10L	1.95
V3M	2.87
V3K	4.2
V3E	5.24
V3C	3.84
V3R	4.56
V3F	2.97
V3W	2.65
V3Q	4.44
V3G	4.81
V3Y	3.02
V3H	4.55
V3I	3.11

Variant	protein stability index
V3N	4.47
V3T	4.51
V3S	4.82
V3P	4.83
V3L	2.62
V3D	5.21
V3A	4.03
A11H	3.22
A11D	3.21
A11E	2.68
A11G	3.45
A11L	2.04
A11V	2.94
A11M	1.87
A11K	2.64
A11S	3.1
A11Y	2.01
A11F	1.83
A11Q	2.58
A11W	2.22
A11C	2.57
A11R	3.02
A11N	3.29
A11T	3.53
A11P	3.73

Variant	protein stability index
A11I	2.29
R4D	4.17
R4W	2.08
R4L	2.35
R4V	2.65
R4Y	2.35
R4T	3.22
R4M	2.46
R4P	4.8
R4Q	3.61
R4S	3.64
R4H	3.2
R4F	2.77
R4K	3.22
R4A	2.99
R4I	2.19
R4G	3.86
R4C	3.14
R4E	3.47
R4N	3.22
F5Q	4.22
F5C	3.77
F5R	3.77
F5I	2.88
F5V	3.7

Variant	protein stability index
F5H	3.48
F5K	4.33
F5W	2.26
F5N	4.29
F5G	4.11
F5Y	2.25
F5L	2.56
F5T	4.38
F5S	4.56
F5M	2.87
F5A	3.9
F5D	4.92
F5P	4.91
F5E	4.71
M2I	1.93
M2V	2.73
M2E	4.73
M2F	1.97
M2W	2.5
M2L	1.95
M2C	3.4
M2G	4.74
M2N	5.32
M2R	4.21
M2S	4.63

Variant	protein stability index
M2D	5.29
M2H	4.21
M2Q	4.64
M2P	4.75
M2T	4.4
M2Y	2.81
M2A	3.71
M2K	4.64
L6N	4.55
L6R	4.55
L6Y	3.81
L6G	4.95
L6D	5.47
L6I	2.63
L6H	4.42
L6A	4.45
L6E	5.28
L6Q	4.75
L6C	4.22
L6K	4.7
L6W	3.25
L6S	4.69
L6P	5.04
L6T	4.62
L6F	3.08

Variant	protein stability index
L6M	3.75
L6V	3.51
E8Q	2.67
E8T	2.63
E8N	2.48
E8D	2.72
E8M	2.62
E8A	2.15
E8S	2.62
E8R	2.03
E8I	2.07
E8G	2.08
E8F	1.94
E8C	2.14
E8V	1.89
E8Y	1.78
E8L	2.52
E8P	3.11
E8K	2.71
E8H	2.43
E8W	1.19
A9K	3.05
A9G	2.8
A9D	3.09
A9E	3.44

Variant	protein stability index
A9C	2.62
A9S	2.96
A9V	2.29
A9L	2.59
A9F	2.32
A9Y	2.54
A9W	1.89
A9M	2.22
A9I	1.98
A9T	3.04
A9H	2.58
A9P	3.08
A9N	2.92
A9R	2.03
A9Q	2.78
D12S	2.29
D12H	1.94
D12G	1.96
D12K	2.69
D12E	2.76
D12L	1.09
D12A	2.38
D12C	1.44
D12Q	2.66
D12I	1.62

Variant	protein stability index
D12M	2.07
D12F	1.66
D12P	2.25
D12N	2.17
D12R	2.05
E1I	1.74
E1V	2.12
E1H	2.75
E1K	2.48
E1D	2.82
E1W	2.05
E1Q	2.9
E1A	2.3
E1S	3.41
E1N	3.37
E1M	1.97
E1P	4.17
E1G	3.41
E1F	2.56
E1T	2.73
E1Y	2.54
E1R	2.81
E1C	2.48
E1L	2.16
